From US20040141994

Biological target: UL12 alkaline nuclease (Herpes simplex virus 1) (UniProt P04294)
Assay: cleavage_in_vitro
Settings: optimal nuclease conditions; 0.06 at strand exchange conditions (pH 7.5, 1 mM MgCl2, 40 mM NaCl, 37 C)

UL12 alkaline nuclease (Herpes simplex virus 1), sequence (P04294 whole entry): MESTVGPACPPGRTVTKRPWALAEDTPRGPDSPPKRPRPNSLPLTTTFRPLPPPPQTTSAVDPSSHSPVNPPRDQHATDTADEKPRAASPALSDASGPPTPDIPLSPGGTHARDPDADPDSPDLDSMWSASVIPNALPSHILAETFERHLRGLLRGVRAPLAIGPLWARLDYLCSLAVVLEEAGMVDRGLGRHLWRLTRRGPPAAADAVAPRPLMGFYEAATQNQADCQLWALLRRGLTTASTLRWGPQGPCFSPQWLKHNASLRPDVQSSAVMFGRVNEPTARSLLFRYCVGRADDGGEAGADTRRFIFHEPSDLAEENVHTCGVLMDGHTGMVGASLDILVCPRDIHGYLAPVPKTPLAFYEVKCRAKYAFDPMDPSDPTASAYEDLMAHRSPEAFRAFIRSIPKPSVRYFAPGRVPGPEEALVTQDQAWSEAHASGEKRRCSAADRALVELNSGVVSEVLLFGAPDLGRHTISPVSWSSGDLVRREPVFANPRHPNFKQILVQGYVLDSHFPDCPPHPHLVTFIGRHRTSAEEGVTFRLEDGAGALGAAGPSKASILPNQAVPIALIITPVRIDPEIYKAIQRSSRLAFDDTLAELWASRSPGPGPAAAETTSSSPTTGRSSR

E. coli chromosomal DNA gave an activity (ng DNA/min/ng protein) of 0.2.
